Test results published in patent US20220220224A1 (Hoffmann-La Roche, published 2022).
Positions count from the first letter of the chain named. Values belong to the binder of their own block, whether it stands above or below them.

Experiments:
[1] = target: T1, recombinant biotinylated monomeric Fc fusion of human Folate Receptor 1 (huFolR1 ECD-AcTev-Fcknob-Avi tag … (human, UniProt P0DOX5 223-449 = IgG part, biotin on the C-terminal Avi tag)); assay: SPR ProteOn, Fab analyte on immobilized antigen-Fc
T1 construct: also called huFolR1-Fc; human FolR1-Fc
Experimental: (§1) Immobilization of antigens (ligand): Recombinant antigens were diluted with PBST (10 mM phosphate, 150 mM sodium chloride pH 7.4, 0.005% Tween 20) to 10 μg/ml, then injected at 30 μl/minute in vertical orientation. Injection of analytes: For ‘one-shot kinetics’ measurements, injection direction was changed to horizontal orientation, two-fold dilution series of purified Fab (varying concentration ranges) were injected simultaneously along separate channels 1-5, with association times of 200 s, and dissociation times of 600 s. Buffer (PBST) was injected along the sixth channel to provide an “in-line” blank for referencing. Association rate constants (kₒₙ) and dissociation rate constants (koff) were calculated using a simple one-to-one Langmuir binding model in ProteOn Manager v3.1 software by simultaneously fitting the association and dissociation sensorgrams. The equilibrium dissociation constant (KD) was calculated as the ratio koff/kₒₙ.

[2] = target: T2, recombinant biotinylated monomeric Fc fusion of human Folate Receptor 2 (hu FolR2 ECD-AcTev-Fcknob-Avi tag … (human, UniProt P0DOX5 223-449 = IgG part, biotin on the C-terminal Avi tag)); assay: SPR ProteOn, Fab analyte on immobilized antigen-Fc
T2 construct: also called FolR2-Fc
Experimental: as §1

[3] = target: T3, recombinant biotinylated monomeric Fc fusion of human Folate Receptor 3 (hu FolR3 ECD-AcTev-Fcknob-Avi tag … (human, UniProt P0DOX5 223-449 = IgG part, biotin on the C-terminal Avi tag)); assay: SPR ProteOn, Fab analyte on immobilized antigen-Fc
T3 construct: also called FolR3-Fc
Experimental: as §1

[4] = target: T4, recombinant biotinylated monomeric Fc fusion of cynomolgus Folate Receptor 1 (cy FolR1 ECD-AcTev-Fcknob-Avi … (cynomolgus, UniProt P0DOX5 223-449 = IgG part, biotin on the C-terminal Avi tag)); assay: SPR ProteOn, Fab analyte on immobilized antigen-Fc
T4 construct: also called cyFolR1-Fc; cyno FolR1
Experimental: as §1

[5] = target: T5, recombinant biotinylated monomeric Fc fusion of murine Folate Receptor 1 (mu FolR1 ECD-AcTev-Fcknob-Avitag … (murine, UniProt P0DOX5 223-449 = IgG part, biotin on the C-terminal Avi tag)); assay: SPR ProteOn, Fab analyte on immobilized antigen-Fc
T5 construct: also called muFolR1-Fc; murine FolR1
Experimental: as §1

[6] = target: T5, recombinant biotinylated monomeric Fc …; assay: SPR Biacore, single injection on immobilized antigen-Fc
Experimental: (§2) Binding of FolR1 binders as IgG or in the T-cell bispecific format to different recombinant folate receptors (human FolR1, 2 and 3, murine FolR1 and cynomolgus FolR1; all as Fc fusions) was assessed by surface plasmon resonance (SPR). All SPR experiments were performed on a Biacore T200 at 25° C. with HBS-EP as running buffer (0.01 M HEPES pH 7.4, 0.15 M NaCl, 3 mM EDTA, 0.005% Surfactant P20, Biacore, Freiburg/Germany).
(§3) First the anti-FolR1 IgGs were analyzed by single injections (Table 1) to characterize their crossreactivity (to human, murine and cyno FolR1) and specificity (to human FolR1, human FolR2, human FolR3). Recombinant biotinylated monomeric Fc fusions of human, cynomolgus and murine Folate Receptor 1 (FolR1-Fc) or human Folate Receptor 2 and 3 (FolR2-Fc, FolR3-Fc) were directly coupled on a SA chip using the standard coupling instruction (Biacore, Freiburg/Germany). The immobilization level was about 300-400 RU. The IgGs were injected for 60 seconds at a concentration of 500 nM.

[7] = target: T2, recombinant biotinylated monomeric Fc …; assay: as above
Experimental: as §2, §3

[8] = target: T3, recombinant biotinylated monomeric Fc …; assay: as above
Experimental: as §2, §3

[9] = target: T5, recombinant biotinylated monomeric Fc …; assay: SPR ProteOn, Fab analyte on immobilized antigen-Fc; remark: listed apart in the source
Experimental: Immobilization of antigens (ligand): Recombinant antigens were diluted with PBST (10 mM phosphate, 150 mM sodium chloride pH 7.4, 0.005% Tween 20) to 10 μg/ml, then injected at 30 μl/minute in vertical orientation. Injection of analytes: For ‘one-shot kinetics’ measurements, injection direction was changed to horizontal orientation, two-fold dilution series of purified Fab (varying concentration ranges) were injected simultaneously along separate channels 1-5, with association times of 150 or 200 s, and dissociation times of 200 or 600 s, respectively. Buffer (PBST) was injected along the sixth channel to provide an “in-line” blank for referencing. Association rate constants (kₒₙ) and dissociation rate constants (koff) were calculated using a simple one-to-one Langmuir binding model in ProteOn Manager v3.1 software by simultaneously fitting the association and dissociation sensorgrams. The equilibrium dissociation constant (KD) was calculated as the ratio koff/kₒₙ.

Kd [1]: 30.9 nM | binding result [2]: no binding | binding result [3]: no binding | Kd [4]: 17.3 nM
B1: 15A1 Fab (Fab, V domains shown)
VH: QVQLVQSGAEVKKPGASVKVSCKASGYTFTSYYMHWVRQAPGQGLEWMGIINPSGGSTSYAQKFQGRVTMTRDTSTSTVYMELSSLRSEDTAVYYCARNYYIGVVTFDYWGQGTLVTVSS
VL: QAVVTQEPSLTVSPGGTVTLTCGSSTGAVTTSNYANWVQEKPGQAFRGLIGGTNKRAPGTPARFSGSLLGGKAALTLSGAQPEDEAEYYCALWYSNLWVFGGGTKLTVL
notes: bacterial Fab

Kd [1]: 21.7 nM | binding result [2]: no binding | binding result [3]: no binding | Kd [4]: 18 nM
B2: 16A3 Fab (Fab, V domains shown)
VH: B1 VH with I102A, V105T, T106P
VL: B1 VL
notes: bacterial Fab

binding result [2]: no binding | binding result [5]: no binding
B3: 21A5 Fab (Fab, V domains shown)
VH: not shown
VL: B1 VL
notes: bacterial Fab

Kd [1]: 93.6 nM | binding result [2]: no binding | binding result [3]: no binding | Kd [4]: 40.2 nM
B4: 18D3 Fab (Fab, V domains shown)
VH: QVQLVQSGAEVKKPGASVKVSCKASGYTFTSYYMHWVRQAPGQGLEWMGIINPSGGSTSYAQKFQGRVTMTRDTSTSTVYMELSSLRSEDTAVYYCARNYYTGGSSAFDYWGQGTLVTVS
VL: B1 VL
notes: bacterial Fab

binding result [2]: no binding | binding result [3]: no binding | Kd [4]: 72.5 nM
B5: 15H7 Fab (Fab, V domains shown)
VH: B1 VH with I102L, G103F, V104S, V105T, T106S
VL: B1 VL
notes: bacterial Fab

binding result [1]: no binding | binding result [2]: no binding | binding result [3]: no binding | binding result [4]: no binding
B6: 20G6 Fab (Fab, V domains shown)
VH: B1 VH with N99G, Y100E, Y101W, G103R, V104Y, V105Y, T106H
VL: B1 VL
notes: bacterial Fab

binding result [1]: no binding | binding result [2]: no binding | binding result [3]: no binding | binding result [4]: no binding
B7: 19H3 Fab (Fab, V domains shown)
VH: B1 VH with N99T, Y100G, Y101W, I102S, G103R, V104W, V105G, T106Y, F107M
VL: B1 VL
notes: bacterial Fab

Kd [1]: 62.6 nM | binding result [2]: no binding | binding result [3]: no binding | Kd [4]: 32.1 nM
B8: 21D1 Fab (Fab, V domains shown)
VH: B1 VH with I102V, V105S, T106P
VL: B1 VL
notes: bacterial Fab

binding result [6]: no binding (tested: 500 nM)
B9: 21G8 IgG (antibody, V domains shown)
VH: not shown
VL: B1 VL
notes: human IgG1

binding result [5]: no binding
B10: 21G8 Fab (Fab, V domains shown)
VH: not shown
VL: B1 VL
notes: bacterial Fab

binding result [7]: no binding (tested: 500 nM) | binding result [6]: no binding (tested: 500 nM) | binding result [8]: no binding (tested: 500 nM)
B11: 16F12 IgG (antibody, V domains shown)
VH: B1 VH with Y100F, Y101T, I102V, G103L, V104R, T106P
VL: B1 VL
notes: human IgG1

binding result [7]: no binding (tested: 500 nM) | binding result [6]: no binding (tested: 500 nM) | binding result [8]: no binding (tested: 500 nM)
B12: 15B6 IgG (antibody, V domains shown)
VH: B1 VH with V104I, T106P
VL: B1 VL
notes: human IgG1

Kd [4]: 276 nM
B13: 19E5 Fab (Fab, V domains shown)
VH: B1 VH with N99G, Y100E, Y101W, I102R, G103R, V104Y, V105T, T106S
VL: B1 VL
notes: bacterial Fab

Kd [9]: 1200 nM
B14: 11F8 Fab (Fab, V domains shown)
VH: QVQLVQSGAEVKKPGSSVKVSCKASGGTFSSYAISWVRQAPGQGLEWMGGIIPIFGTANYAQKFQGRVTITADKSTSTAYMELSSLRSEDTAVYYCARAVFYRAWYSFDYWGQGTTVTVSS
VL: DIQMTQSPSTLSASVGDRVTITCRASQSISSWLAWYQQKPGKAPKLLIYDASSLESGVPSRFSGSGSGTEFTLTISSLQPDDFATYYCQQYTSPPPTFGQGTKVEIK
notes: bacterial Fab

binding result [6]: no binding (tested: 500 nM)
B15: 5D9 IgG (antibody, V domains shown)
VH: QVQLVQSGAEVKKPGASVKVSCKASGYTFTSYYMHWVRQAPGQGLEWMGIINPSGGSTSYAQKFQGRVTMTRDTSTSTVYMELSSLRSEDTAVYYCARSYIDMDYWGQGTLVTVSS
VL: EIVLTQSPGTLSLSPGERATLSCRASQSVSSSYLAWYQQKPGQAPRLLIYGASSRATGIPDRFSGSGSGTDFTLTISRLEPEDFAVYYCQQDNWSPTFGQGTKVEIK
notes: human IgG1

binding result [9]: no binding
B16: 5D9 Fab (Fab, V domains shown)
VH: B15 VH
VL: B15 VL
notes: bacterial Fab

binding result [9]: no binding
B17: 6B6 Fab (Fab, V domains shown)
VH: B15 VH with I101V
VL: B15 VL with N93I
notes: bacterial Fab

binding result [6]: no binding (tested: 500 nM)
B18: 6B6 IgG (antibody, V domains shown)
VH: B15 VH with I101V
VL: B15 VL with N93I
notes: human IgG1
